Results: patent US20040138156A1, “Therapeutic regulation of deoxyribonuclease-1-like-3 activity” (priority 2002, published 2004)
Entries after “also recorded” stand apart in the source; their conditions may differ.

Tests used:
bone marrow macrophages = assay: Induction of D1L3 in cultured bone marrow macrophages (anti-D1L3 immunoblot, RDA, zymogram); type: cell-based, C57BL mice; conditions: 100 U/ml for the interferons
Experimental: FIG. 22. Normal and induced expression of D1L3 in murine macrophages. […] In anti-D1L3 blots of cell lysates, the protein is seen both as a ^˜34 kDa uncleaved molecule and a ^˜28 kDa cleaved molecule. […] Cells were plated on serum-coated tissue culture dishes and incubated overnight, the next morning, non-adherent cells (N) were rinsed vigorously with PBS 1×, and both adeherent (A) and non-adherent cells (N) from C57BL, NZB/W, BXSB, and MRL were lysed and immunoblotted with anti-D1L3. While the ^˜34 kDa size band consistent with uncleaved D1L3 is present in both adherent and non-adherent, the cleaved form (^˜28 kDa) is present almost exclusively in the adherent population of presumed macrophages. Also noticable are the higher levels of expression of D1L3 in the 3 latter lupus strains. Panel B: Untreated bone marrow macrophages from NZB/WF1 mice have a much higher baseline expression expression of D1L3 than C57BL macrophages.
Induction is present in macrophages from both strain though the absolute level of induction appears greater in C57BL than in the SLE-prone NZB/W F1 strain. NZB/W protein loads in Ifn-γ-negative lane is slightly underloaded relative to actin. Panel C: Bone marrow macrophages isolated from bone marrow (via adherence) from MRL and C57BL mice, and cultured for 2 days in vitro, were induced by Ifn-γ. […] No induction of D1L3, RDA-DNASE, or zymographic DNASE activity is evident upon tratement with 100 U/ml of Ifn-alpha. […] Panel D: Bone marrow macrophages from C57BL and MRL mice cultured for 7 days in the presence of GM-CSF were induced with Ifn-γ, again showing the higher baseline levels of 28 kDa enzyme in the lupus prone strain, and in C57BL showing induction of levels aftern Ifn-γ. […]
Assays of Murine Cells. […] Splenocytes were counted using a hemochromocytometer, and plated at 2 million cells/ml on plastic 6-well Falcon tissue culture dishes (Becton Dickinson) in RPMI with 10% FCS. […]

HeLa cells = assay: BT assay: liposomal N1-eGFP transfection of HeLa cells in DNASE-conditioned media, GFP immunoblot; type: cell-based; conditions: for GFP fluorescence by fluorescent microscopy: 24 hours; for GFP transfection in ten-fold diluted conditioned media: ten-fold (five and ten fold) dilution of conditioned media; for BT activity / GFP expression or transfection efficiency in cells exposed to undiluted conditioned media: FuGENE-6
Experimental: In the main assay, an eukaryotic marker such as green fluorescent protein (GFP) expression plasmid complexed with a lipid reagent is transfected into HeLa cells incubated in control media, D1L3-conditioned media, or D1-conditioned media (FIG. 4). The assay is not limited to the use of GFP as a marker, but could use any of many expressed biomarkers encoded by nucleotides that can be assayed either immunochemistry, fluorescent detection, or enzymatic detectection, and these include but are not circumscribed to luciferase, chloramphenicol acetyl-transferase, antibiotic or chemical resistance genes, Beta-galactosidase, FLAG-, myc-hemaglutinnin-, or other epitope tagged molecules, as well as other markers of gene or nucleotide transduction. The endpoint of the assay is the detection of a synthesized protein, but could easily have been the detection of a transcribed gene product, since the assay ultimately measures the ability of D1L3 added the media/milieu overlaying the cells to block the ultimate association of an expressible plasmid with the transcriptional machinery.
(§1) Transfection Reagents and Resistance Assays. Lipofection of respective pcDNA3.1-D1 or -D3 ([…] purified with Promega Wizard Plus DNA system) was performed independently into 1-2 million HeLa cells, which produce a low background of secreted nuclease activity, when grown in DMEM with 10% FCS (LifeTech) in 6 well culture plates (Becton-Dickinson). […] Media of the transfected cells were conditioned for 36-48 hours and served as source of the respective enzymes. Nuclease activity in conditioned supernatant was measured by RDAs, zymograms and by testing activity against supercoiled pBluescript (Stratagene).
To test for the ability of the nucleases to block transfection, the media in individual wells of naive HeLa cells were replaced with conditioned media, and cells transfected with […] of N1-eGFP plasmid (Clontech) using various transfection reagents (FIG. 11) and their respective protocols. GFP expression by immunoblot directly correlated with transfection efficiency in present experiments. Thus, transfection efficiency was compared by densitometric analysis of GFP immunoblots.
GFP expression was also examined by fluorescent microscopy using a FITC filter. For microscopy, cells were fixed for 5 minutes in 4% paraformaldehyde dissolved into 1% PBS.
Antibody Reagents and Immunoblotting. After 24-36 hours, cells transfected with N1-eGFP were lysed in SDS-buffer and immunoblotted for expression with anti-GFP at 1:5000 dilution (Clontech). To confirm nearly equal protein loading per lane, anti-β-actin monoclonal antibody at 1:7,000 dilution (Sigma) were prepared. For immunoblots, […] protein was eletrophoretically separated by 12% SDS-PAGE gel, followed by electrotransfer to Immobilon-P membranes (Millipore) for expression studies. Immunoblotting was performed using ECL detection (Amersham).
Transfection efficiency was compared, wherever possible, by pixel densitometry of the scanned images using Scion Image 4.02 software.

free DNA = assay: Radial diffusion assay (RDA) of nuclease activity against free DNA in conditioned media; type: biochemical; conditions: for mean RDA activity of conditioned media: 24 hours, 37 degrees
Experimental: as §1
Nuclease Assays. Nuclease activity against “naked” or free DNA in CM was quantified by densitometry of RDAs. For assays of media by murine cells, RDAs were performed using conditioned media, after 36 hour incubation of equal numbers of target cell population. Each conditioned media was sampled in triplicate. RDAs for all four mice were performed on a single dish. For RDAs, 2-5 ul of conditioned supernatant was dotted on 100 mm dishes containing 2% agarose, 250 ug/ml DNA, 0.001% EtBr, 0.5% filtered milk, 10 mM Ca^+2/MgCl2; and 12.5 ug/ml kanamycin. Multiple observations were generated for every sample obtained. After 24 hours of 37° incubation, plates are photographed under UV transillumination; and scanned photos were analyzed with NIH image. For RDAs, the activity was quantified as the product of mean density and area (traced on image) of zones of clearing. For observations of serum/urine, 2-5 ul of serum were dotted on agarose plates.
Zymograms are in-gel renaturation assays performed by SDS-PAGE through a gel impregnated with 200 µg/ml DNA and ethidium bromide, eluting away SDS with repeated washes in 25 mM Tris-HCl pH 7.5, then incubating for 12-16 hours at 37° C. in 25 mM Tris-HCl pH 7.5 with 10 mM Ca^+2/Mg^+2 buffer. Activity is measured as dark “bands” of DNA digestion (Rosenthal et al., (1977) Anal. Biochem. 80, 76-90) and quantified using scanned images using NIH Image. Photographed RDA results were scanned 600 dpi Tiff images, and activity was measured as pixel area times density of traced zones of clearing (n=3 for each zone). Student's T-test was used to compare paired results. Nuclease activity ratios were obtained by comparing intra-plate results.

Ad5.CMV-GFP = assay: Adenoviral gene transduction of HeLa cells in conditioned media, GFP immunoblot; type: cell-based, adenovirus serotype 5; conditions: lysed at 72 hours
Experimental: FIG. 30. D3-media confers an in vitro barrier to adenoviral gene transduction (BT). This figure provides anti-GFP immunoblots at 1:5000 (Clontech) of Ad.V.GFP infected (MO 100:1) of 100,000 HeLa cells. Infection of HeLa cells with Ad5.CMV-GFP (a 1st generation (DE1/DE3) adenovirus serotype 5 expressing GFP under the control of CMV-IE promoter (Qbiogene)) was performed in the presence of D1, D3, D1+D3CT, or control conditioned media. Infected cells were lysed at 72 hours and tested for GFP expression (n=3 expts). […] Thus DNASE1L3 or DNASE enzymes linked to the D3CT diminish adenoviral gene transfer. […] Actin levels were generally equivalent in infected cells.

liposomal-bound plasmid = assay: Cell-free nuclease activity assay on free or FuGene-bound plasmid; type: biochemical; conditions: FuGene-bound plasmid, 37° C., 1 hour
Experimental: FIG. 16. […] Representative experiment (n=3) of exposure of […] free (−) or liposomal-bound (+FuGene) plasmid to control media with 10% fetal calf serum (lanes 1-2), D1 (lanes 3-4), D1L3 (lanes 5-6), D3DCT (lanes 7-8), and N196K-D3 (lanes 9-10).
Cell-Free Nuclease Activity Assay. Free plasmid DNA or plasmid complexed with lipofection reagent was incubated with conditioned at 37° C. for 1 hour. The incubation was terminated with […] EDTA, and DNA extracted using Promega Wizard DNA Purification System, eluted in […] water, and electrophoresed on a 1% agarose gel.

[1] = media conditioned by transfected HeLa cells

| Molecule | induction of D1L3 in macrophages (bone marrow macrophages) | GFP fluorescence by fluorescent microscopy (HeLa cells) | BT activity / GFP expression or transfection efficiency in cells exposed to undiluted conditioned media (HeLa cells; anti-GFP immunoblot) | mean RDA activity of conditioned media (free DNA; [1]) | GFP expression after Ad5.CMV-GFP infection / barrier to infection (Ad5.CMV-GFP) | state of liposome-bound plasmid after exposure to conditioned media (liposomal-bound plasmid) | also measured |
| --- | --- | --- | --- | --- | --- | --- | --- |
| CCCCCCCCCCCCCC(=O)O[C@@H]1[C@@H](C)[C@@]2(O)[C@@H](C=C(CO)C[C@]3(O)C(=O)C(C)=C[C@@H]23)[C@@H]2C(C)(C)[C@]12OC(C)=O [PMA, phorbol myristate acetate] | inducible | – | – | – | – | – | – |
| lipopolysaccaride [LPS] | inducible | – | – | – | – | – | – |
| D1L3: Deoxyribonuclease 1-like 3; murine wild-type (C57BL, 89T) enzyme supplied as media conditioned by transfected HeLa cells (protein) LRLCSFNVRSFGASKKENHEAMDIIVKIIKRCDLILLMEIKDSSNNICPMLMEKLNGNSRRSTTYNYVISSRLGRNTYKEQYAFVYKEKLVSVKTKYHYHDYQDGDTDVFSREPFVVWFHSPFTAVKDFVIVPLHTTPETSVKEIDELVDVYTDVRSQWKTENFIFMGDFNAGCSYVPKKAWQNIRLRTDPKFVWLIGDQEDTTVKKSTSCAYDRIVLCGQEIVNSVVPRSSGVFDFQKAYDLSEEEALDVSDHFPVEFKLQSSRAFTNNRKSVSLKKRKKGNRS | – | absence of GFP fluorescence | No GFP expression; also recorded: effectively blocks transfection efficiency | 12.0 Units | afford a barrier to infection | mostly supercoiled plasmid is protected | BT effect of diluted conditioned media (HeLa cells; diluted 100 fold with control media or 10-fold with N196K conditioned media): complete BT effect; GFP transduction after pre-incubation in conditioned media (HeLa cells; naive cells incubated six hours, rinsed twice with PBS, transfected in control media): blocked; GFP transfection in ten-fold diluted conditioned media (HeLa cells): No GFP expression is clearly detectable; GFP transfection in ten-fold diluted conditioned media (HeLa cells; listed as 89T): nearly completely blocks GFP transduction; also recorded: no GFP transfection efficiency; GFP transfection in ten-fold diluted conditioned media (HeLa cells; listed as D3): No GFP expression is clearly detectable; BT activity / GFP expression or transfection efficiency in cells exposed to undiluted conditioned media (HeLa cells; anti-GFP immunoblot, listed as 89T): saturated BT activity; BT activity / GFP expression or transfection efficiency in cells exposed to undiluted conditioned media (HeLa cells; anti-GFP immunoblot, listed as D3): prevents GFP expression; also recorded: abolished; GFP expression after Ad5.CMV-GFP infection / barrier to infection (Ad5.CMV-GFP; listed as D3): prevents GFP expression; state of liposome-bound plasmid after exposure to conditioned media (liposomal-bound plasmid; listed as D1L3-CM): does not completely digest liposomal-bound DNA |
| D1: Murine deoxyribonuclease 1, glycosylated, supplied as media conditioned by transfected HeLa cells (protein, UniProt P49183 23-284, looked up) Deoxyribonuclease-1: LRIAAFNIRTFGETKMSNATLSVYFVKILSRYDIAVIQEVRDSHLVAVGKLLDELNRDKPDTYRYVVSEPLGRKSYKEQYLFVYRPDQVSILDSYQYDDGCEPCGNDTFSREPAIVKFFSPYTEVQEFAIVPLHAAPTEAVSEIDALYDVYLDVWQKWGLEDIMFMGDFNAGCSYVTSSQWSSIRLRTSPIFQWLIPDSADTTVTSTHCAYDRIVVAGALLQAAVVPNSAVPFDFQAEYGLSNQLAEAISDHYPVEVTLRKI | – | abundant GFP | did not differ significantly from controls; also recorded: no significant decrease; also recorded: no effect | 28.2 Units | increased expression of GFP | all remaining plasmid migrated in a nicked or linearized conformation | mean ratio of GFP expression in exposed cells versus control (HeLa cells; n=20 assays, anti-GFP immunoblot): 0.8 ± 0.2; RDA activity relative to D1L3 conditioned media (free DNA; densitometry of RDAs, n=24 assays): ~2.7 fold; RDA nuclease activity of conditioned media (in words) (free DNA; [1]): greater RDA activity than D3 |
